Data published in the Human Domainome abundance scans (Beltran et al. 2025).
± gives the uncertainty stated by the source.

B1: Ankyrin-3, residues 4094 to 4171; numbered along this chain, Q12955 (parent)
chain: MAIVADHLGLSWTELARELNFSVDEINQIRVENPNSLISQSFMLLKKWVTRDGKNATTDALTSVLTKINRIDIVTLLE

Variants of: B1
Experiment: abundance fitness (aPCA) (normalised: wild type 0, dead -1); higher = more abundant; growth selection in yeast, the domain comes from the species named
Details: Homo sapiens

Abundance fitness of substitutions, site by site:
A60: K -0.083 ± 0.19; D -0.627 ± 0.31; W -0.458 ± 0.073; I -0.28 ± 0.17; E 0.061 ± 0.075; C -0.09 ± 0.13; Y -0.417 ± 0.26; G -0.233 ± 0.048; P -0.993 ± 0.2; L -0.074 ± 0.054; R -0.081 ± 0.051; V -0.019 ± 0.039; T -0.283 ± 0.14; Q -0.021 ± 0.069; N 0.219 ± 0.18; F -0.086 ± 0.11; S -0.134 ± 0.071
G53: C -0.545 ± 0.15; S -0.325 ± 0.046; K -0.145 ± 0.13; L -0.832 ± 0.13; E -0.111 ± 0.072; F -0.728 ± 0.14; P -0.149 ± 0.051; Q -0.065 ± 0.059; A -0.457 ± 0.077; H -0.3 ± 0.28; Y -0.962 ± 0.44; V -0.672 ± 0.089; R -0.367 ± 0.057; D -0.578 ± 0.13; T -0.521 ± 0.14; W -0.849 ± 0.16; M -0.772 ± 0.26
R51: A -0.78 ± 0.12; H -0.848 ± 0.25; V -0.789 ± 0.12; P -0.77 ± 0.11; Q -0.994 ± 0.21; L -0.829 ± 0.096; W -0.503 ± 0.31; G -0.499 ± 0.082; I -0.616 ± 0.35; K -0.531 ± 0.12; M -0.682 ± 0.18; Y -0.773 ± 0.37; T -1.02 ± 0.29; D -0.637 ± 0.46; C -0.744 ± 0.26
L45: H -0.449 ± 0.25; M -0.193 ± 0.085; A -0.862 ± 0.13; V -0.603 ± 0.084; R -0.865 ± 0.095; W -0.862 ± 0.14; Q -0.833 ± 0.2; I -0.302 ± 0.12; P -0.92 ± 0.15; C -0.444 ± 0.11; G -0.906 ± 0.1; E -0.851 ± 0.28; S -0.881 ± 0.12
D52: T -0.607 ± 0.098; H -0.577 ± 0.2; L -0.89 ± 0.15; V -0.575 ± 0.076; N -0.687 ± 0.41; P -0.767 ± 0.21; G -0.625 ± 0.066; C -0.549 ± 0.17; E -0.025 ± 0.074; S -0.589 ± 0.085; W -0.874 ± 0.18; K -0.358 ± 0.24; I -0.255 ± 0.17; A -0.274 ± 0.055; Y -0.717 ± 0.29; Q -0.359 ± 0.062; F -0.748 ± 0.26
L44: I -0.371 ± 0.18; Y -0.693 ± 0.27; V -0.171 ± 0.047; W -0.806 ± 0.07; H -0.75 ± 0.33; S -0.914 ± 0.13; G -0.93 ± 0.11; T -0.561 ± 0.087; Q -0.784 ± 0.16; P -0.867 ± 0.15; M -0.074 ± 0.071; R -0.796 ± 0.1
V64: G -0.05 ± 0.08; S -0.06 ± 0.089; T -0.087 ± 0.15; K -0.333 ± 0.47; R -0.298 ± 0.12; L 0.111 ± 0.07; P 0.037 ± 0.085; M 0.064 ± 0.28; F 0.111 ± 0.052; Q 0.064 ± 0.17; E 0.001 ± 0.15; H 0.132 ± 0.12; C 0.05 ± 0.12; N -0.236 ± 0.35; A -0.081 ± 0.078; D -0.858 ± 0.25
N55: S -0.021 ± 0.052; V -0.114 ± 0.062; G 0.057 ± 0.038; C -0.157 ± 0.13; L -0.004 ± 0.042; Q 0.011 ± 0.051; Y -0.041 ± 0.15; P -0.603 ± 0.094; H -0.058 ± 0.094; F -0.15 ± 0.1; T -0.115 ± 0.087; M -0.047 ± 0.075; A 0.007 ± 0.06; R -0.073 ± 0.042; E -0.079 ± 0.093; W -0.135 ± 0.065; D 0.066 ± 0.11
L61: A -0.732 ± 0.11; P -0.921 ± 0.15; M -0.223 ± 0.12; G -0.954 ± 0.12; S -0.665 ± 0.11; I -0.355 ± 0.1; T -1.05 ± 0.25; R -0.412 ± 0.067; F -0.823 ± 0.23
A56: R -0.506 ± 0.059; L -0.433 ± 0.075; N -0.53 ± 0.29; T -0.517 ± 0.11; Y -0.353 ± 0.31; M -0.526 ± 0.12; K -0.175 ± 0.21; C -0.271 ± 0.11; F -0.304 ± 0.19; I -0.298 ± 0.16; G -0.613 ± 0.072; W -0.458 ± 0.072; H -0.296 ± 0.18; V -0.037 ± 0.049; S -0.517 ± 0.082
D59: C -0.036 ± 0.17; L -0.133 ± 0.048; G -0.011 ± 0.056; W -0.201 ± 0.062; P -0.058 ± 0.094; R -0.072 ± 0.048; Q 0.052 ± 0.11; K 0.052 ± 0.078; F -0.565 ± 0.36; S -0.118 ± 0.052; N -0.228 ± 0.15; H -0.058 ± 0.15; Y -0.253 ± 0.15; V -0.117 ± 0.049; M 0.022 ± 0.085; E -0.103 ± 0.069; A -0.032 ± 0.074
T50: N -0.204 ± 0.23; E -0.008 ± 0.075; Q -0.024 ± 0.08; D 0.089 ± 0.045; F -0.247 ± 0.17; H 0.051 ± 0.081; G 0.026 ± 0.043; P -1.02 ± 0.18; I -0.18 ± 0.1; Y 0 ± 0.1; K 0.098 ± 0.082; R -0.094 ± 0.058; S -0.016 ± 0.054; L 0.041 ± 0.044; V -0.036 ± 0.051; A 0.097 ± 0.059; W -0.065 ± 0.06; M 0.035 ± 0.086
K46: Y -0.665 ± 0.16; S -0.024 ± 0.052; E -0.013 ± 0.14; T -0.061 ± 0.067; I -0.581 ± 0.17; C -0.432 ± 0.079; H -0.195 ± 0.16; R -0.018 ± 0.041; W -0.541 ± 0.13; G -0.337 ± 0.049; V -0.373 ± 0.062; L -0.377 ± 0.061; F -0.762 ± 0.3; M -0.204 ± 0.1; N -0.044 ± 0.11; Q 0.124 ± 0.074; P -0.915 ± 0.12
K47: P -0.956 ± 0.13; Q -0.19 ± 0.094; E -0.235 ± 0.097; V -0.487 ± 0.079; F -0.138 ± 0.18; M -0.005 ± 0.08; W -0.124 ± 0.058; N -0.033 ± 0.49; T -0.149 ± 0.09; Y -0.39 ± 0.15; D -0.177 ± 0.19; H -0.11 ± 0.31; S -0.068 ± 0.062; C -0.369 ± 0.12; L -0.099 ± 0.045; G -0.31 ± 0.05
V49: G -0.168 ± 0.044; Y 0.021 ± 0.15; Q 0.07 ± 0.1; W -0.361 ± 0.092; T -0.115 ± 0.077; C -0.095 ± 0.07; L -0.058 ± 0.06; M -0.082 ± 0.074; E 0.087 ± 0.089; R 0.024 ± 0.057; P -1.02 ± 0.19; A 0.022 ± 0.051; N 0.057 ± 0.17; D -0.392 ± 0.14; S -0.034 ± 0.065; K -0.093 ± 0.098; F -0.154 ± 0.11; I -0.041 ± 0.082
T62: E -0.297 ± 0.098; Q -0.201 ± 0.15; P -0.102 ± 0.089; G -0.201 ± 0.058; I -0.386 ± 0.17; R 0.068 ± 0.058; C -0.292 ± 0.13; W -0.434 ± 0.091; H -0.297 ± 0.33; N -0.44 ± 0.48; F -0.175 ± 0.099; K 0.097 ± 0.12; Y -0.12 ± 0.13; L -0.045 ± 0.04; M 0.06 ± 0.15; V -0.057 ± 0.084; A 0.039 ± 0.069
K54: A -0.019 ± 0.059; H 0.037 ± 0.14; E -0.132 ± 0.11; R -0.064 ± 0.042; P -0.107 ± 0.076; T -0.121 ± 0.082; N -0.316 ± 0.34; D -0.233 ± 0.15; V 0.038 ± 0.055; Q -0.054 ± 0.085; Y -0.147 ± 0.079; F -0.156 ± 0.088; C -0.088 ± 0.076; I 0.065 ± 0.12; S 0.049 ± 0.058; M -0.1 ± 0.073; L -0.051 ± 0.048; W -0.21 ± 0.07
W48: I -0.83 ± 0.32; P -0.923 ± 0.28; L -0.715 ± 0.11; C -0.868 ± 0.35; G -0.811 ± 0.25; H -0.752 ± 0.38; Q -0.808 ± 0.33; S -0.928 ± 0.18; V -0.887 ± 0.29; T -0.876 ± 0.26; R -1 ± 0.23; M -0.635 ± 0.31
T58: E -0.113 ± 0.079; A -0.051 ± 0.06; D 0.086 ± 0.079; V 0.05 ± 0.059; M 0.173 ± 0.14; H 0.001 ± 0.091; W -0.123 ± 0.074; G -0.104 ± 0.04; L -0.002 ± 0.05; S 0.106 ± 0.058; F -0.112 ± 0.15; R -0.067 ± 0.051; I 0.09 ± 0.22; N -0.168 ± 0.17; P -0.195 ± 0.054; K 0.016 ± 0.13; Q 0.034 ± 0.11
S63: H -0.051 ± 0.1; E -0.075 ± 0.11; R -0.004 ± 0.059; D 0.054 ± 0.12; K 0.002 ± 0.097; A -0.014 ± 0.034; M -0.046 ± 0.064; Y -0.003 ± 0.13; F -0.153 ± 0.15; P -0.137 ± 0.084; T 0.023 ± 0.066; W -0.405 ± 0.086; C -0.11 ± 0.087; V -0.061 ± 0.053; I -0.287 ± 0.27; Q -0.012 ± 0.079; G -0.031 ± 0.053; N -0.106 ± 0.24
T57: I -0.779 ± 0.3; R -0.548 ± 0.066; G -0.387 ± 0.06; E -0.859 ± 0.17; F -0.39 ± 0.13; W -0.931 ± 0.18; Y -0.14 ± 0.12; S -0.117 ± 0.058; D -0.108 ± 0.11; H -0.176 ± 0.1; P -0.896 ± 0.15; V -0.124 ± 0.055; N 0.079 ± 0.12; L -0.798 ± 0.098; K -0.739 ± 0.25; M -0.394 ± 0.11; Q -0.298 ± 0.11; A -0.195 ± 0.066
